# From article PMC9392322, “Modulation of macrophage inflammatory function through selective inhibition of the epigenetic reader protein SP140” (BMC Biology, 2022)
# Ends that are not written are not given here. Me3 = trimethyl (trimethyl-lysine)
# Assays:
# SP140 = target: T1, SP140 (Homo sapiens, UniProt Q13342); assay: fluorescence polarization competition against GSK064; format: binding
# T1 construct: 6HisFLAGTEVSP140 (687-867), PHD-Brd
# [1] = target: T2, 6His-Flag-Tev-SP140-PHD-Brd (687-867) (human, UniProt Q13342 687-867); assay: fluorescence polarisation; competition: H3 peptides serially diluted, displacing 10 nM GSK306 (FAM-labelled GSK761) from 80 nM 6His…140 (687-867); 50 mM HEPES pH 7.5, 50 mM NaCl, 1 mM CHAPS, 1 mM DTT; 30 min; settings: both partners purified
# T2 construct: SP140 (Speckled 140 kDa), construct spanning the PHD and Brd domains, aa 687-867; also called SP140 (aa 687-867); source: recombinant protein; not shown: His6, N-terminal, kept; FLAG, N-terminal, kept
# [2] = target: T2, 6His-Flag-Tev-SP140-PHD-Brd (687-867); assay: peptide or protein array; Active Motif modified histone peptide array, peptides on the slide; blocked with 3% BSA; 10 mg/mL 6His-Flag-Tev-SP140-PHD-Brd (687-867) in solution; detected with anti-6His antibody and anti-rabbit IgG HRP; in duplicate; settings: both partners purified
# T2 sequence (Q13342 687-867): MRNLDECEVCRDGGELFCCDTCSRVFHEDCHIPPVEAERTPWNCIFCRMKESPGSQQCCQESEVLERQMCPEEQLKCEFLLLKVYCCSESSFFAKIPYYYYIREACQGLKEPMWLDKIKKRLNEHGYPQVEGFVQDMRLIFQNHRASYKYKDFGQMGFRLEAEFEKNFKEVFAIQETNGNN
# T1 sequence (Q13342 687-867): as above
IC50 [1] [µM],Molecule,other results
–,Cn1c(-c2ccc(C(=O)Nc3cccc(CCOC(C)(C)C)c3)cc2)nc2cc(C(=O)Nc3cccc(CCOC(C)(C)C)c3)ccc21 [GSK761],IC50 (SP140): 0.0778 ± 0.00827 µM
12.5,"ARTK(Me3)QTARKS (histone H3, residues 1-10; numbers count on: the protein without the initiator methionine; source: bought: Anaspec library) [H3K4(3Me) (1-10)]",–
–,"ARTKQTARKSTGGKAPRKQ (histone H3, residues 1-19; numbers count on: the protein without the initiator methionine; Spotted on the array slide; source: bought: Active Motif modified histone peptide array) [unmodified H3_(1-19) peptide (histone peptide array)]",binding result [2]: binds
2.83,"ARTKQTARK (also: biotin, position not given here, histone H3, residues 1-9; numbers count on: the protein without the initiator methionine; source: bought: Anaspec library) [biotinylated H3 (1-9)]",–
0.27,"ARTKQTARKSTGGKAPRKYCK (also: biotin, position not given here, histone H3, residues 1-18; numbers count on: the protein without the initiator methionine; added residues, printed as '+YCK' after 1-18; also called H3_(1-18); source: bought: Anaspec library) [biotinylated H3(+YCK) (1-18 +YCK)]",–
